# From article PMC7915030, “A Novel Artificially Humanized Anti-Cripto-1 Antibody Suppressing Cancer Cell Growth” (International Journal of Molecular Sciences, 2021)
# B1: anti-CR-1 antibody Clone 35 (antibody, V domains shown)
# VH: QVQLQQSGPGLVKPSQTLSLTCAISGNSVSSNSAAWNWIRRSPSRGLEWLGRTYYRSKWYNDYAVSVKSRITIKPDTSKNQFSLQLNSVTPEDTAMYYCARGFCSGGRCYSFDYWGPGTLVTVSS
# VL: QSVLTQPASVSGSPGQSITISCTGTDSDVGAYGSASWYRHSPGKAPQLIIYDVTNRPSGVSNRFYGSKSGNTASLTISGLQAEDEADYYCQAWDSGIHVVFGGGTQLTVL
# notes: VH of phage clone 35 from the human scFv phage display library; human IgG heavy-chain constant region (CH1, CH2 and CH3) of the vector pHIgH5zeo; VL of phage clone 35 from the human scFv phage display library; human IgG light-chain constant region (CL) of the vector pHIgL5hyg; Whole human IgG format (VH-CH1-CH2-CH3 and VL-CL); also called anti-CR-1 Ab Clone 35; anti-CR-1 Clone 35 antibody
# B2: anti-CR-1 antibody Clone 224 (antibody, V domains shown)
# VH: QVQLQQSGPGLVKPSQTLSLTCAISGDSVSSNSATWNWIRQSPSRGLEWLGRTYYKSKWYNEYAVSVKSRITINPDTSKNQFSLQLDSVTPEDTAMYYCATDRYYARDYWGRGTLVTVSS
# VL: QSVLIQPRSVSGSPGQSVTISCTGTSGDVGYYDHVSWYQQHPGKAPKIMIYDVTQRPSGVPDRFSGSRSGNTASLTISGLQADDESDYYCVLYLGNGIWVFGGGTQLTVL
# notes: VH of phage clone 224; human IgG heavy chain constant region CH1-CH2-CH3 from the vector pHIgH5zeo; VL of phage clone 224; human IgG light chain constant region CL from the vector pHIgL5hyg; whole human IgG built from the VH and VL of the scFv phage clone; also called anti-CR-1 Ab; source: ExpiCHO-S, transfected, conditioned medium
# B3: anti-CR-1 antibody Clone 226 (antibody, V domains shown)
# VH: QVQLQQSGPGLVKPSQTLSLTCAISGDSVSSNSAAWNWIRQSPSRGLEWLGRTYYRSKWYNDYAVSVKSRITINPDTSKNQFSLQLNSVTPEDTAVYYCTPTPTWWPVRWGQGTLVTVSS
# VL: QSALTQPRSVSGSPGQSVTISCTGTSGDVGYYDHVSWYQQHPGKAPKLFIYDVTKRPSGVPDRFSASKSGNTASLTISRLQAEDEAEYHCLTWGNSAVFGGGTQLTVL
# notes: VH of phage clone 226; human IgG heavy chain constant region CH1-CH2-CH3 from the vector pHIgH5zeo; VL of phage clone 226; human IgG light chain constant region CL from the vector pHIgL5hyg; whole human IgG built from the VH and VL of the scFv phage clone; also called anti-CR-1 Ab; source: ExpiCHO-S, transfected, conditioned medium
# B4: anti-CR-1 antibody Clone 90 (antibody, V domains shown)
# VH: QVQLQQSGPGLVKPSQTLSLTCAISGDSVSSNSAAWNWIRQSPSRGLEWLGRTYYRSKWYNDYAVSVKSRITIKPDTSKNQFSLQLYSVTPEDTAMYYCARDSYGMDVWGQGTTATVSS
# VL: NFMLTQPPSASGTPGQRVSISCSGSSSNIGSSSVYWCRQLPGTAPKLLIYDVTNRPSGVPDRFSASKSGTSASLAISGLRSEDESDYYCVLYMGSGISVFGGGTKVTVL
# notes: VH of phage clone 90; human IgG heavy chain constant region CH1-CH2-CH3 from the vector pHIgH5zeo; VL of phage clone 90; human IgG light chain constant region CL from the vector pHIgL5hyg; whole human IgG built from the VH and VL of the scFv phage clone; also called anti-CR-1 Ab; source: ExpiCHO-S, transfected, conditioned medium
# B5: anti-CR-1 antibody Clone 331 (antibody, V domains shown)
# VH: QVQLQQSGPGQVKPSQSLSLICAISGDSVSTSSAAWNWIRQSPSRGFEWLGRTFYRSGWFTDYAASVKSRITINPDTSKNQFSLQLNSVTPEDTAMYYCARIRSGYRFDYWGQGILVAVSS
# VL: NFMLTQPPSASGTPGQRVTVSCSGSSSNIGSNFVFWYQHLPGKAPKLLIYRNHQRPSGVPDRFSGSKSGTSASLAISGLRSEDESDYYCQVWDDRNVVFGGGTQLTVL
# notes: VH of phage clone 331; human IgG heavy chain constant region CH1-CH2-CH3 from the vector pHIgH5zeo; VL of phage clone 331; human IgG light chain constant region CL from the vector pHIgL5hyg; whole human IgG built from the VH and VL of the scFv phage clone; also called anti-CR-1 Ab; source: ExpiCHO-S, transfected, conditioned medium
# B6: anti-CR-1 antibody Clone 212 (antibody, V domains shown)
# VH: QVQLQQSGPGLVKPSQTLSLTCGISGDSVSSNSAAWNWIRQSPSRGLEWLGRTYYRSQWYNDYAVSVNSRITINPDTSKNQFSLQLNSVTPEDTAMYYCARTLRTPLADDYYYSGMDAWGQGTTVTVSS
# VL: QSVLIQPASVSGSPGQSITISCTGTSSDVGSYNLASWYQHHPGKAPKLMIYEVNNRPSGVSNRFSGSKSGNTASLTISGLQAEDEADYYCQVWDGSGDPHAVFGGGTQLTVL
# notes: VH of phage clone 212; human IgG heavy chain constant region CH1-CH2-CH3 from the vector pHIgH5zeo; VL of phage clone 212; human IgG light chain constant region CL from the vector pHIgL5hyg; whole human IgG built from the VH and VL of the scFv phage clone; also called anti-CR-1 Ab; source: ExpiCHO-S, transfected, conditioned medium
# B7: anti-CR-1 antibody Clone 292 (antibody, V domains shown)
# VH: QVQLQQSGPGLVKPSQTLPLTCAIYGDSVSSNSAAWNWIRQSPSRGLEWLGRTYYRSKWYNDYAVSVQSRITINPDTSKNQFSLQLNSVTPEDTAMYYCAKGKLSLEVITTRGWDWGQGTLVTVSS
# VL: QSVLTQPRSVSGSPGQSVTISCTGTRADVGTYHYVSWYQRHPGKAPKLIIYDVSKRPSGVPDRFSGSKSGNTASLTVSGLQAEDEADYYCQSADSSGTYVIFGGGTQLTVL
# notes: VH of phage clone 292; human IgG heavy chain constant region CH1-CH2-CH3 from the vector pHIgH5zeo; VL of phage clone 292; human IgG light chain constant region CL from the vector pHIgL5hyg; whole human IgG built from the VH and VL of the scFv phage clone; also called anti-CR-1 Ab; source: ExpiCHO-S, transfected, conditioned medium
# B8: anti-CR-1 antibody Clone 35 (antibody, V domains shown)
# VH: B1 VH
# VL: B1 VL
# notes: VH of phage clone 35; human IgG heavy chain constant region CH1-CH2-CH3 from the vector pHIgH5zeo; VL of phage clone 35; human IgG light chain constant region CL from the vector pHIgL5hyg; whole human IgG built from the VH and VL of the scFv phage clone; also called anti-CR-1 Ab Clone 35; anti-CR-1 Ab; source: ExpiCHO-S, transfected, conditioned medium; also purified (HiTrap protein A)
# B9: anti-CR-1 antibody Clone 242 (antibody, V domains shown)
# VH: QVQLVESGGGLVQPGGSLRLSCAASGFTFSNKPMSWVRQAPGKGLEWLSAISGSGVYAYFADSAKGRFTISRDNSKNTPYLQMNSLRAEDTAMYYCARQHITMLPGWFDPWGQGTLVTVSS
# VL: QSVLTQPPSASGSPGQSVTISCTGSSSDVGGYNYVSWYQQHPGKAPKLMIYEVSKRPSGVPDRFSGSKSGNTASLTVSGLQAEDEAEYHCATWDNSLSSWVFGRGTQLTVL
# notes: VH of phage clone 242; human IgG heavy chain constant region CH1-CH2-CH3 from the vector pHIgH5zeo; VL of phage clone 242; human IgG light chain constant region CL from the vector pHIgL5hyg; whole human IgG built from the VH and VL of the scFv phage clone; also called anti-CR-1 Ab; source: ExpiCHO-S, transfected, conditioned medium
# Biological target: T1, recombinant soluble human CR-1 protein (rshCR-1) (Homo sapiens, UniProt P13385)
# T1 construct: Cripto-1 (CR-1), human, recombinant soluble form; also called rhsCR-1; recombinant Cripto-1
# T1 sequence (P13385 31-150): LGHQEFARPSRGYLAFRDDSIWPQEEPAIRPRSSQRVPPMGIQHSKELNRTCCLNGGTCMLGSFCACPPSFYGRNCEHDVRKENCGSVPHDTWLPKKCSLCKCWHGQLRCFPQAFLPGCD
# Test: BLI; Octet; rshCR-1 (2 ng/mL) fixed to amine reactive biosensor; purified antibody 25-200 nM; global fitting, steady state analysis section
# Settings: both partners purified
row,Binder,koff
1,B1,0.0114 s⁻¹

# Biological target: T2, recombinant soluble human CR-1 protein (Homo sapiens, UniProt P13385)
# T2 construct: Cripto-1 (CR-1), human, recombinant soluble form; also called rshCR-1; rhsCR-1
# T2 sequence (P13385 31-150): as above
# Test: BLI; Octet RED96; rshCR-1 immobilised on Amine Reactive (AR2G) biosensor; anti-CR-1 Abs in ExpiCHO-S conditioned medium as analyte
# Settings: one partner purified
row,Binder,koff
1,B2,0.0191 s⁻¹
2,B3,0.0194 s⁻¹
3,B4,0.0196 s⁻¹
4,B5,0.0181 s⁻¹
5,B6,0.0209 s⁻¹
6,B7,0.0207 s⁻¹
7,B8,0.0186 s⁻¹
8,B9,0.0187 s⁻¹

# Biological target: Cripto-1 (CR-1) in CR-1 overexpressing human cancer cell lines and cancer tissues (Homo sapiens, UniProt P13385)
# Sequence (P13385 31-150): as above
# Test: cell-based or functional assay
# Settings: not given
row,Binder,"growth inhibition of GEO cells overexpressing CR-1 (MTT, 72 h), antibody 2.1–136 µg/mL (14–900 nM); IC50"
1,B1,~110 nM
